Test results taken from US20210155676A1 (Gilead, published 2021).

Key:
[1] = biological target: T1, human FcγRIIIA (human, UniProt P08637 17-254); test: cell-based or functional assay
[2] = biological target: T1, human FcγRIIIA; test: cell-based or functional assay; remark: listed apart in the source
[3] = biological target: T2, gp140 SHIV SF162P3 (SHIV SF162P3); test: ELISA, gp140 coated
T2 construct: domain: gp140; also called SHIV gp140
Procedure: (§1) The in vitro binding characteristics of antibodies for both the antigen (HIV gp120) and Fc binding receptors (FcγRs, FcRn) were determined using an Enzyme-Linked Immunosorbant Assay (ELISA).

[4] = biological target: T3, gp140 BaL (HIV-1 strain BaL); test: ELISA, gp140 coated
T3 construct: domain: gp140
Procedure: as §1

[5] = biological target: T1, human FcγRIIIA; test: cell-based or functional assay; remark: listed apart in the source
[6] = biological target: HIV-1 BaL Env (on virus) (HIV-1 strain BaL); test: cell-based or functional assay
[7] = biological target: HIV-1 92US712 Env (on virus) (HIV-1 isolate 92US712); test: cell-based or functional assay
[8] = biological target: HIV-1 93HT593 Env (on virus) (HIV-1 isolate 93HT593); test: cell-based or functional assay
[9] = biological target: HIV-1 92US727 Env (on virus) (HIV-1 isolate 92US727); test: cell-based or functional assay
[10] = biological target: HIV-1 92US657 Env (on virus) (HIV-1 isolate 92US657); test: cell-based or functional assay

T1 sequence (P08637 17-254): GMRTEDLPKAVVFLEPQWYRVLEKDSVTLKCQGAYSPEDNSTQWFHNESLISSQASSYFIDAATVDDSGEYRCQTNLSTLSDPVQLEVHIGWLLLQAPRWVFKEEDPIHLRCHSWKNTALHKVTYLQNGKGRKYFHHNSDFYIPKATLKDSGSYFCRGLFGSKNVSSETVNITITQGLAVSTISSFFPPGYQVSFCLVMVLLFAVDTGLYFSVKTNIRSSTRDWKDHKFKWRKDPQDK

B1: PGT121.42 hIgG1/hLambda (antibody)
heavy: QMQLQESGPGLVKPSETLSLTCSVSGASISDSYWSWIRRSPGKGLEWIGYVHKSGDTNYNPSLKSRVHLSLDTSKNQVSLSLSSVTAADSGKYYCARTLHGRRIYGIVAFNEWFTYFYMDVWGKGTQVTVSSASTKGPSVFPLAPSSKSTSGGTAALGCLVKDYFPEPVTVSWNSGALTSGVHTFPAVLQSSGLYSLSSVVTVPSSSLGTQTYICNVNHKPSNTKVDKKVEPKSCDKTHTCPPCPAPELLAGPDVFLFPPKPKDTLMISRTPEVTCVVVDVSHEDPEVKFNWYVDGVEVHNAKTKPREEQYNSTYRVVSVLTVLHQDWLNGKEYKCKVSNKALPLPEEKTISKAKGQPREPQVYTLPPSREEMTKNQVSLTCLVKGFYPSDIAVEWESNGQPENNYKTTPPVLDSDGSFFLYSKLTVDKSRWQQGNVFSCSVLHEALHSHYTQKSLSLSPGK
light: not shown
notes: also called PTG121.42
- NK ADCC EC50, US657-infected CD4+ T cells, donor A4588 [1]: 4300 pM
- NK ADCC EC50, US657-infected CD4+ T cells, donor A4589 [1]: 1500 pM
- NK ADCC EC50, US657-infected CD4+ T cells, donor A4595 [1]: 570 pM
- NK ADCC EC50, US657-infected CD4+ T cells, donor A4813 [1]: 1400 pM
- NK ADCC EC50, US657-infected CD4+ T cells, donor A4838 [1]: 940 pM
- NK ADCC EC50, US657-infected CD4+ T cells, donor A4839 [1]: 540 pM
- NK ADCC EC50, US657-infected CD4+ T cells, geomean of donors [1]: 1200 pM
- NK ADCC EC50, BaL-infected CD4+ T cells, donor A4590 [2]: 1200 pM
- NK ADCC EC50, BaL-infected CD4+ T cells, donor A4591 [2]: 20 pM
- NK ADCC EC50, BaL-infected CD4+ T cells, donor A4813 [2]: 4400 pM
- NK ADCC EC50, BaL-infected CD4+ T cells, donor A4838 [2]: 500 pM
- NK ADCC EC50, BaL-infected CD4+ T cells, donor A4839 [2]: 3900 pM
- NK ADCC EC50, BaL-infected CD4+ T cells, geomean of donors [2]: 700 pM
- EC50 [3]: 450 pM
- EC50 [4]: 520 pM
- NK ADCC EC50, HT593-infected CD4+ T cells, donor 1 [5]: 24 pM
- NK ADCC EC50, HT593-infected CD4+ T cells, donor A4588 [5]: 176 pM
- NK ADCC EC50, HT593-infected CD4+ T cells, donor A4589 [5]: 180 pM
- NK ADCC EC50, HT593-infected CD4+ T cells, donor A4813 [5]: 4900 pM
- NK ADCC EC50, HT593-infected CD4+ T cells, donor A4838 [5]: 620 pM
- NK ADCC EC50, HT593-infected CD4+ T cells, donor A4839 [5]: 5200 pM
- NK ADCC EC50, HT593-infected CD4+ T cells, donor X [5]: 14 pM
- NK ADCC EC50, HT593-infected CD4+ T cells, geomean of donors [5]: 300 pM
- neutralization IC50, HIV-1 BaL, CEM.NKr.CCR5.Luc assay [6]: 0.015 µg/mL
- neutralization IC50, HIV-1 US712, CEM.NKr.CCR5.Luc assay [7]: 0.02 µg/mL
- neutralization IC50, HIV-1 HT593, CEM.NKr.CCR5.Luc assay [8]: 0.155 µg/mL
- neutralization IC50, HIV-1 US727, CEM.NKr.CCR5.Luc assay [9]: 0.015 µg/mL
- neutralization IC50, HIV-1 US657, CEM.NKr.CCR5.Luc assay [10]: 0.096 µg/mL
